Experimental data from patent US5625031, “Peptide inhibitors of the p33^cdk2 and p34^cdc2 cell cycle regulatory kinases and human papillomavirus E7 oncoprotein” (Bristol-Myers Squibb Company, dated 1997).

Legend:
[1] = target: T1, p34^cdc2 cell cycle regulatory kinase (Homo sapiens (Human), UniProt P06493); assay: IC50 column of Table 1 (ELISA based competition on p107 30mer-coated plate)
[2] = target: T1, p34^cdc2 cell cycle regulatory kinase; assay: IC50 column of Table 1 (ELISA based competition, competitor plate-bound p107 30mer)

Binder | binding result [1] | IC50 [2] [µM]
LCAAYIMAK [p107 9mer peptide 715FA] | no binding (tested: >100 µM) | > 100
LCAKYIMAK [p107 9mer peptide 715FK] | no binding (tested: >100 µM) | > 100
LCAFYKMAK [p107 9mer peptide 717IK] | no binding (tested: >100 µM) | > 100
YIMAK [p107 N5mer peptide] | no binding (tested: >100 µM) | > 100
